{"source": "the RNAGym collection of RNA variant scans (doi:10.7554/elife.80360)", "parents": {"B1": {"name": "HDV Ribozyme (parent)", "chain": "GGCCGGCAUGGUCCCAGCCUCCUCGCUGGCGCCGGCUGGGCAACAUUCCGAGGGGACCGUCCCCUCGGUAAUGGCGAAUGGGACCCA"}}, "data": [{"variants_of": "B1", "experiment": "self-cleavage, relative activity (ratio to wild type); higher = more cleavage; co-transcriptional", "values": [{"variant": "C19G A70C", "self-cleavage": 0}, {"variant": "C19G G55C", "self-cleavage": 0.0475}, {"variant": "C19G G55A", "self-cleavage": 0.0346}, {"variant": "C18G C41G", "self-cleavage": 0.266}, {"variant": "G17U G34A", "self-cleavage": 0.13}, {"variant": "C18G C22G", "self-cleavage": 0.0755}, {"variant": "C18A G38A", "self-cleavage": 0.113}, {"variant": "C18U G39C", "self-cleavage": 0.0405}, {"variant": "C18A G25A", "self-cleavage": 0.133}, {"variant": "C18A G25C", "self-cleavage": 0.0405}, {"variant": "C18A G55C", "self-cleavage": 0.133}, {"variant": "C18A G55U", "self-cleavage": 0.197}, {"variant": "C19A G53U", "self-cleavage": 0.157}, {"variant": "C19A G53A", "self-cleavage": 0.149}, {"variant": "C19A C66U", "self-cleavage": 0.116}, {"variant": "C19A A83U", "self-cleavage": 0.138}, {"variant": "C19A A83C", "self-cleavage": 0.0426}, {"variant": "C18G C66U", "self-cleavage": 0.166}, {"variant": "C18U C85U", "self-cleavage": 0.582}, {"variant": "C18G A56C", "self-cleavage": 0.0755}, {"variant": "C19A G76A", "self-cleavage": 0.185}, {"variant": "C18G U23G", "self-cleavage": 0}, {"variant": "C18U C26U", "self-cleavage": 0.848}, {"variant": "C18U C26A", "self-cleavage": 0.591}, {"variant": "C19A C84U", "self-cleavage": 0.0804}, {"variant": "C18G G39A", "self-cleavage": 0}, {"variant": "G17U A43G", "self-cleavage": 0.237}, {"variant": "C19A U69C", "self-cleavage": 0.146}, {"variant": "C19G A45G", "self-cleavage": 0.106}, {"variant": "C19A G80C", "self-cleavage": 0.0665}, {"variant": "C18U C75A", "self-cleavage": 0.366}, {"variant": "C18U A71C", "self-cleavage": 0.259}, {"variant": "C18U A71U", "self-cleavage": 0.724}, {"variant": "C19G C58G", "self-cleavage": 0.0739}, {"variant": "C19G U60A", "self-cleavage": 0.0959}, {"variant": "C19G U60C", "self-cleavage": 0.0627}, {"variant": "C19G U60G", "self-cleavage": 0.0405}, {"variant": "C18U G50C", "self-cleavage": 0.705}, {"variant": "C18U G50U", "self-cleavage": 0.639}, {"variant": "G17U A70G", "self-cleavage": 0.674}, {"variant": "C18G C62G", "self-cleavage": 0}, {"variant": "G17U G31C", "self-cleavage": 0.0361}, {"variant": "C18A C19G", "self-cleavage": 0.145}, {"variant": "C18A C19A", "self-cleavage": 0.128}, {"variant": "G17U G28A", "self-cleavage": 0.188}, {"variant": "G17U U69C", "self-cleavage": 0.869}, {"variant": "C19G G80A", "self-cleavage": 0.131}, {"variant": "C18G G25U", "self-cleavage": 0.0386}, {"variant": "C18U C49A", "self-cleavage": 0.623}, {"variant": "C18U C49G", "self-cleavage": 0.723}, {"variant": "C18A C62A", "self-cleavage": 0.102}, {"variant": "G17U C26G", "self-cleavage": 0.608}, {"variant": "G17U C26U", "self-cleavage": 0.654}, {"variant": "C19G G34A", "self-cleavage": 0.248}, {"variant": "C19G G34C", "self-cleavage": 0.0978}, {"variant": "C18G G38U", "self-cleavage": 0.0386}, {"variant": "C18G G38C", "self-cleavage": 0}, {"variant": "C19A C57A", "self-cleavage": 0.0801}, {"variant": "C19A C57G", "self-cleavage": 0.119}, {"variant": "C18A C86U", "self-cleavage": 0.0898}, {"variant": "C18A C86A", "self-cleavage": 0.106}, {"variant": "C18U C30U", "self-cleavage": 0.185}, {"variant": "C19G C49G", "self-cleavage": 0.0426}, {"variant": "C18G G67A", "self-cleavage": 0.101}, {"variant": "C19G C32G", "self-cleavage": 0.0462}, {"variant": "G17U A71G", "self-cleavage": 0.323}, {"variant": "C19G C75A", "self-cleavage": 0.0773}, {"variant": "C18A C21A", "self-cleavage": 0.125}, {"variant": "C18A C21U", "self-cleavage": 0.089}, {"variant": "C19A G29U", "self-cleavage": 0.0733}, {"variant": "C19A G52U", "self-cleavage": 0.149}, {"variant": "C19G C36U", "self-cleavage": 0.0767}, {"variant": "C18A A87U", "self-cleavage": 0.126}, {"variant": "G17U C58A", "self-cleavage": 0.847}, {"variant": "G17U C36U", "self-cleavage": 0.166}, {"variant": "G17U C64G", "self-cleavage": 0.495}, {"variant": "G17U C30G", "self-cleavage": 0.486}, {"variant": "G17U C30A", "self-cleavage": 0.831}, {"variant": "C19A G28A", "self-cleavage": 0.225}, {"variant": "C18U C61A", "self-cleavage": 0.709}, {"variant": "C18U C61G", "self-cleavage": 0.53}, {"variant": "G17C U60G", "self-cleavage": 0.356}, {"variant": "C18U G76C", "self-cleavage": 0.978}, {"variant": "C18U U65A", "self-cleavage": 0.635}, {"variant": "C18U U65G", "self-cleavage": 0.554}, {"variant": "G17U G74A", "self-cleavage": 0.129}, {"variant": "C18U G53A", "self-cleavage": 0.639}, {"variant": "C18U G53C", "self-cleavage": 0.607}, {"variant": "C18G G54A", "self-cleavage": 0.125}, {"variant": "C18G G54C", "self-cleavage": 0.0475}, {"variant": "C19G G31A", "self-cleavage": 0.0554}, {"variant": "C19A A56G", "self-cleavage": 0.256}, {"variant": "C19G G38U", "self-cleavage": 0.0852}, {"variant": "C19G G38C", "self-cleavage": 0.0639}, {"variant": "C18U A87U", "self-cleavage": 0.853}, {"variant": "G17U G76C", "self-cleavage": 0.751}, {"variant": "G17U C22A", "self-cleavage": 0.0831}, {"variant": "C19A A42G", "self-cleavage": 0.0811}, {"variant": "C19A G59U", "self-cleavage": 0.134}, {"variant": "G17C U20C", "self-cleavage": 0}, {"variant": "C18A C36G", "self-cleavage": 0}, {"variant": "C18A C36A", "self-cleavage": 0.0361}, {"variant": "C19G C61A", "self-cleavage": 0.106}, {"variant": "G17U G81A", "self-cleavage": 0.415}, {"variant": "G17U G81C", "self-cleavage": 0.197}, {"variant": "G17U G81U", "self-cleavage": 0.381}, {"variant": "C18A U23C", "self-cleavage": 0}, {"variant": "C18U C86G", "self-cleavage": 0.704}, {"variant": "C18U C19A", "self-cleavage": 0.0906}, {"variant": "C19A C32A", "self-cleavage": 0.0604}, {"variant": "C19A U20A", "self-cleavage": 0.0234}, {"variant": "G17U C41A", "self-cleavage": 0.104}, {"variant": "G17U C41U", "self-cleavage": 0.253}, {"variant": "C18U C48G", "self-cleavage": 0.683}, {"variant": "C18U C48U", "self-cleavage": 0.639}, {"variant": "C18G G52C", "self-cleavage": 0.0554}, {"variant": "C18U C33A", "self-cleavage": 0.0354}, {"variant": "C18U G29A", "self-cleavage": 1.06}, {"variant": "C18U G29U", "self-cleavage": 0.0639}, {"variant": "G17U U23G", "self-cleavage": 0.0692}, {"variant": "C18G A83U", "self-cleavage": 0.101}, {"variant": "G17U G82C", "self-cleavage": 0.269}, {"variant": "G17U G82U", "self-cleavage": 0.361}, {"variant": "G17U U72G", "self-cleavage": 0}, {"variant": "C18G G80C", "self-cleavage": 0.0707}, {"variant": "G17U G54C", "self-cleavage": 0.536}, {"variant": "G17U G54U", "self-cleavage": 0.546}, {"variant": "C18A A42G", "self-cleavage": 0.102}, {"variant": "G17U U27C", "self-cleavage": 0.308}, {"variant": "C18G C86U", "self-cleavage": 0.0875}, {"variant": "C19A G38C", "self-cleavage": 0.0248}, {"variant": "C18U A83G", "self-cleavage": 0.356}, {"variant": "G17U A51G", "self-cleavage": 0.34}, {"variant": "C19G G40U", "self-cleavage": 0.0997}, {"variant": "C19A G50C", "self-cleavage": 0.0923}, {"variant": "G17U G40U", "self-cleavage": 0.381}, {"variant": "C18A U37C", "self-cleavage": 0.0361}, {"variant": "C18A U37G", "self-cleavage": 0.185}, {"variant": "C18A U37A", "self-cleavage": 0.0462}, {"variant": "C18G U27A", "self-cleavage": 0.0665}, {"variant": "G17U G50U", "self-cleavage": 0.609}, {"variant": "C19A C24A", "self-cleavage": 0.0831}, {"variant": "C19G C44G", "self-cleavage": 0.0959}, {"variant": "C19G C44A", "self-cleavage": 0}, {"variant": "C19G C44U", "self-cleavage": 0.0563}, {"variant": "C18U G54C", "self-cleavage": 0.606}, {"variant": "G17C U23C", "self-cleavage": 0.208}, {"variant": "G17U U47A", "self-cleavage": 0.256}, {"variant": "C19G G81U", "self-cleavage": 0.0997}, {"variant": "C19A G55U", "self-cleavage": 0.0923}, {"variant": "C19A G55C", "self-cleavage": 0.0489}, {"variant": "C18A G34U", "self-cleavage": 0.0489}, {"variant": "C18U G35C", "self-cleavage": 0.119}, {"variant": "G17U C57A", "self-cleavage": 0.689}, {"variant": "C19A G34C", "self-cleavage": 0.0739}, {"variant": "C19A G34A", "self-cleavage": 0.0755}, {"variant": "C19G G76C", "self-cleavage": 0}, {"variant": "C18G C19G", "self-cleavage": 0}, {"variant": "C18G U46C", "self-cleavage": 0}, {"variant": "C19G A83C", "self-cleavage": 0}, {"variant": "C19G A78C", "self-cleavage": 0.119}, {"variant": "C19A U65G", "self-cleavage": 0.189}, {"variant": "C19A U65C", "self-cleavage": 0.155}, {"variant": "C19A U65A", "self-cleavage": 0.273}, {"variant": "C18A G73A", "self-cleavage": 0.0755}, {"variant": "C19G C48U", "self-cleavage": 0.0733}, {"variant": "C19G C48A", "self-cleavage": 0.115}]}]}
